Source: the RNAGym collection of RNA variant scans (doi:10.7554/elife.80360)

B1: Hammerhead Ribozyme (parent)
chain: ACCGGAUGUGCUUUCCGGUCUGAUGAGUCCGUGAGGACGAAACAG

Variants of: B1
Assay: self-cleavage, relative activity (ratio to wild type); higher = more cleavage; co-transcriptional

Variant | self-cleavage
ACCGGAUGUCCUUUCCGGUCUGAUGAGUCCCUGAGGACGAAACAG [G10C G31C] | 0.704
ACCGGAUGUGCUUUCUGGUCUGAUGAGUCCAUGAGGACGAAACAG [C16U G31A] | 0.731
ACCGGAUGUGCUUUCCGGUCUGAUGAGUCCGUGAGGUCGCAACAG [A37U A40C] | 0.472
ACCAGAUGUGCUUUCCGGACUGAUGAGUCCGUGAGGACGAAACAG [G4A U19A] | 0.353
ACCGGAUGUGUUUUCCGGCCUGAUGAGUCCGUGAGGACGAAACAG [C11U U19C] | 0.484
ACCGUAUGUGCUUUCCGGUCUGAUGAGUCCAUGAGGACGAAACAG [G5U G31A] | 1.25
ACCGGAUGAGCUUUCCGGUCUGAUGAGUCCGUGAGGACGAAACAC [U9A G45C] | 0.609
ACCGGAUGUGCUUUCCGGUCUGAUGAGUCCGUGACGACGAAAGAG [G35C C43G] | 0.325
ACCGGAUGCGCUUUCCGGUCUGAUGAAUCCGUGAGGACGAAACAG [U9C G27A] | 0.973
ACCCGAUGUGCUUUCCGGUCUGAUGAGUCCGUGAGGACCAAACAG [G4C G39C] | 0.244
ACCGGAUGUGCUUCCCGGCCUGAUGAGUCCGUGAGGACGAAACAG [U14C U19C] | 0.398
ACCGGUUGUGCUUUCCGGUCUGAUGAGUCCGUGAGGACGAAACGG [A6U A44G] | 1.12
ACCGGAUGUGCUUUCCGGUCUGAUGAGUCCGUCAGCACGAAACAG [G33C G36C] | 0.451
ACCGGAUGUGCUUUCCGGUCUGAUGUAUCCGUGAGGACGAAACAG [A26U G27A] | 0.518
ACCGGUUGUGCAUUCCGGUCUGAUGAGUCCGUGAGGACGAAACAG [A6U U12A] | 0.538
ACCGUAUGUGCUUUCCGGUCUGAUUAGUCCGUGAGGACGAAACAG [G5U G25U] | 0.355
ACCGGAUGUGCUUUCCGGUCUGAUGAGUCCGUGAUGACGUAACAG [G35U A40U] | 0.366
ACCGGAUCUGCUUUCCGGUCUGAUGAGUCCGUGAGGACGAAUCAG [G8C A42U] | 0.266
ACCGGAUGUGCUUUCCGGUCUGAUGAGGCUGUGAGGACGAAACAG [U28G C30U] | 0.83

Variant | self-cleavage
ACCGGAUGUGCUUUCCGGUCUGUUGAGUCCGGGAGGACGAAACAG [A23U U32G] | 0.41
ACCGGAUGUGCUGUCCGGUCUGAUGAGUCCGUGAGGUCGAAACAG [U13G A37U] | 0.625
ACCGGAUGUGCCUUCCAGUCUGAUGAGUCCGUGAGGACGAAACAG [U12C G17A] | 0.79
ACCGGAUGUGCCUUCCGUUCUGAUGAGUCCGUGAGGACGAAACAG [U12C G18U] | 0.626
ACCGGAUGUGCUUUCCGGUAGGAUGAGUCCGUGAGGACGAAACAG [C20A U21G] | 0.326
ACCGGUUGUGUUUUCCGGUCUGAUGAGUCCGUGAGGACGAAACAG [A6U C11U] | 0.607
ACCGGAUGUGCUUUCCGUUCUAAUGAGUCCGUGAGGACGAAACAG [G18U G22A] | 0.344
ACCGGAUGUGCUUUCCGGUGUGUUGAGUCCGUGAGGACGAAACAG [C20G A23U] | 0.317
ACCGGAUGUGCUUUCCAGUCUGAUGAGUCCGUGAGGACGAAAAAG [G17A C43A] | 0.372
ACCGGAUGUGCUUUCCGGUCUGUUGAGUCCGUGAGGACCAAACAG [A23U G39C] | 0.341
ACCUGAUGUGCUUUCCGGUCUGAUGAGUCCGUGAGGACCAAACAG [G4U G39C] | 0.266
ACUGGAUGUGCUUUCCGGUCUGAUGAGUCCGUGAGGACGAAUCAG [C3U A42U] | 0.38
ACCGGAUGUGCGUUCCGGUCUGAUGAGUCCGUGAGGACGAAAUAG [U12G C43U] | 0.43
ACCGGGUGUGCUCUCCGGUCUGAUGAGUCCGUGAGGACGAAACAG [A6G U13C] | 0.722
ACCGGAUGGGCUUUCCGGUCUGAUGAGUCCGCGAGGACGAAACAG [U9G U32C] | 1.21
ACCGGAGUUGCUUUCCGGUCUGAUGAGUCCGUGAGGACGAAACAG [U7G G8U] | 1.36
ACCGGAUGUGCUUUCCGGUCUGGUGAGUCCGUAAGGACGAAACAG [A23G G33A] | 0.465
ACCGGAUGUGCUUUCCGGUCUGAUGACUCCGUGAGGACGAAAUAG [G27C C43U] | 0.399
ACCGGAUGUGCUUUCCGGUCAGAUGAGGCCGUGAGGACGAAACAG [U21A U28G] | 0.392

Variant | self-cleavage
ACUGGAUGUGCUUUCCGGUCUGAUGAGUCCGUGAGGAUGAAACAG [C3U C38U] | 0.999
ACCGGAUGUGCUUUCCGGUCUGAUGAGGCCGUGAGGACGAAAGAG [U28G C43G] | 0.274
ACCGGAUGUGCUUUUCGGUCUGAUGAGUCCGAGAGGACGAAACAG [C15U U32A] | 1
AGCGGAUGUGCUUUCCGGUCUGAUGAGUCCGUGAGGACAAAACAG [C2G G39A] | 0.342
ACCGGAUGUGCUUUCCGGUCUGAUGAGUCCGUGAGGAAGACACAG [C38A A41C] | 0.287
ACCGGAUGUGCUUUCCGGUCUGAUGAGUGCGUGAGGACGAAUCAG [C29G A42U] | 0.394
ACCGGAUGUCCUUUCCGGUCUGAUGUGUCCGUGAGGACGAAACAG [G10C A26U] | 0.851
AACGGAUGAGCUUUCCGGUCUGAUGAGUCCGUGAGGACGAAACAG [C2A U9A] | 0.563
ACUGGAUGUGCUUUCCGGGCUGAUGAGUCCGUGAGGACGAAACAG [C3U U19G] | 0.38
ACCGGAAGUGCUUUACGGUCUGAUGAGUCCGUGAGGACGAAACAG [U7A C15A] | 0.852
ACCGGAUGUGCUUACCGGUCUGAUGAGUCCGUGAGGACGAAAUAG [U14A C43U] | 0.41
ACGGGAUGUGCGUUCCGGUCUGAUGAGUCCGUGAGGACGAAACAG [C3G U12G] | 0.356
ACCGAAUGUGCUUUCCGGUCUGAUGAGUCCGCGAGGACGAAACAG [G5A U32C] | 1.15
CCCGGAUGUGCUUUCCGGUCUGAUGAGUACGUGAGGACGAAACAG [A1C C29A] | 0.31
ACCGGAUAUGCUUUCCGGUCUGAUGAGUCCGUGAGGACGAAGCAG [G8A A42G] | 0.306
ACCGGAUGUGCUUUCAGGUCUGAUGUGUCCGUGAGGACGAAACAG [C16A A26U] | 0.59
ACCGGAUGUGCUUUCCGGUCUGAUGAGUCCGUGAGGACGAUGCAG [A41U A42G] | 0.35
ACCGGAUGUGCUUUCCGGUCUGAUGAGACCGUGACGACGAAACAG [U28A G35C] | 0.435
AACGGAUGUGCUUUCCGGUCUGAGGAGUCCGUGAGGACGAAACAG [C2A U24G] | 0.644
